Laboratory results reported in patent US8119117.

Target: CD40 receptor on dendritic cells (mouse) (UniProt P27512)
Assay: cell-based or functional assay

UniProt P27512, sequence (P27512 20-289): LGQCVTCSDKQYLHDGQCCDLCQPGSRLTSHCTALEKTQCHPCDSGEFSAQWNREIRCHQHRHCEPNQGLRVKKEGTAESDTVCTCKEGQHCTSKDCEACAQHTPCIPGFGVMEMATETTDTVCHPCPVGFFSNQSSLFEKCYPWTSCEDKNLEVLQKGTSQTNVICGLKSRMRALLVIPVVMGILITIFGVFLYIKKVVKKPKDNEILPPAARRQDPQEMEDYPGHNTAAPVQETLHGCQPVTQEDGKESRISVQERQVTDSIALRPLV

E7-ΔCtΔTmCD40L fusion protein (secreted; HPV type 16 E7, 10 amino acid linker, murine CD40 ligand residues 52-260) (from UniProt P03129 1-98; P27548 52-260)
IFN-γ released by DCs exposed to the vector (ELISA), first 24 hours: 335 pg | IL-12 produced by DCs exposed to the vector (ELISA), 24 h (pg/2×10^5 cell/ml/24 h): 18 | IL-12 produced by DCs exposed to the vector (ELISA), 48 h (pg/2×10^5 cell/ml/48 h): 88
